B1: DNA topoisomerase 2-binding protein 1 (Homo sapiens), Q92547 (parent)
chain: MSRNDKEPFFVKFLKSSDNSKCFFKALESIKEFQSEEYLQIITEEEALKIKENDRSLYICDPFSGVVFDHLKKLGCRIVGPQVVIFCMHHQRCVPRAEHPVYNMVMSDVTISCTSLEKEKREEVHKYVQMMGGRVYRDLNVSVTHLIAGEVGSKKYLVAANLKKPILLPSWIKTLWEKSQEKKITRYTDINMEDFKCPIFLGCIICVTGLCGLDRKEVQQLTVKHGGQYMGQLKMNECTHLIVQEPKGQKYECAKRWNVHCVTTQWFFDSIEKGFCQDESIYKTEPRPEAKTMPNSSTPTSQINTIDSRTLSDVSNISNINASCVSESICNSLNSKLEPTLENLENLDVSAFQAPEDLLDGCRIYLCGFSGRKLDKLRRLINSGGGVRFNQLNEDVTHVIVGDYDDELKQFWNKSAHRPHVVGAKWLLECFSKGYMLSEEPYIHANYQPVEIPVSHKPESKAALLKKKNSSFSKKDFAPSEKHEQADEDLLSQYENGSSTVVEAKTSEARPFNDSTHAEPLNDSTHISLQEENQSSVSHCVPDVSTITEEGLFSQKSFLVLGFSNENESNIANIIKENAGKIMSLLSRTVADYAVVPLLGCEVEATVGEVVTNTWLVTCIDYQTLFDPKSNPLFTPVPVMTGMTPLEDCVISFSQCAGAEKESLTFLANLLGASVQEYFVRKSNAKKGMFASTHLILKERGGSKYEAAKKWNLPAVTIAWLLETARTGKRADESHFLIENSTKEERSLETEITNGINLNSDTAEHPGTRLQTHRKTVVTPLDMNRFQSKAFRAVVSQHARQVAASPAVGQPLQKEPSLHLDTPSKFLSKDKLFKPSFDVKDALAALETPGRPSQQKRKPSTPLSEVIVKNLQLALANSSRNAVALSASPQLKEAQSEKEEAPKPLHKVVVCVSKKLSKKQSELNGIAASLGADYRWSFDETVTHFIYQGRPNDTNREYKSVKERGVHIVSEHWLLDCAQECKHLPESLYPHTYNPKMSLDISAVQDGRLCNSRLLSAVSSTKDDEPDPLILEENDVDNMATNNKESAPSNGSGKNDSKGVLTQTLEMRENFQKQLQEIMSATSIVKPQGQRTSLSRSGCNSASSTPDSTRSARSGRSRVLEALRQSRQTVPDVNTEPSQNEQIIWDDPTAREERARLASNLQWPSCPTQYSELQVDIQNLEDSPFQKPLHDSEIAKQAVCDPGNIRVTEAPKHPISEELETPIKDSHLIPTPQAPSIAFPLANPPVAPHPREKIITIEETHEELKKQYIFQLSSLNPQERIDYCHLIEKLGGLVIEKQCFDPTCTHIVVGHPLRNEKYLASVAAGKWVLHRSYLEACRTAGHFVQEEDYEWGSSSILDVLTGINVQQRRLALAAMRWRKKIQQRQESGIVEGAFSGWKVILHVDQSREAGFKRLLQSGGAKVLPGHSVPLFKEATHLFSDLNKLKPDDSGVNIAEAAAQNVYCLRTEYIADYLMQESPPHVENYCLPEAISFIQNNKELGTGLSQKRKAPTEKNKIKRPRVH

Assays:
[1] = variants of: B1; conditions: with akt1_human AKT1, P31749
akt1_human AKT1, P31749, sequence (P31749 whole entry): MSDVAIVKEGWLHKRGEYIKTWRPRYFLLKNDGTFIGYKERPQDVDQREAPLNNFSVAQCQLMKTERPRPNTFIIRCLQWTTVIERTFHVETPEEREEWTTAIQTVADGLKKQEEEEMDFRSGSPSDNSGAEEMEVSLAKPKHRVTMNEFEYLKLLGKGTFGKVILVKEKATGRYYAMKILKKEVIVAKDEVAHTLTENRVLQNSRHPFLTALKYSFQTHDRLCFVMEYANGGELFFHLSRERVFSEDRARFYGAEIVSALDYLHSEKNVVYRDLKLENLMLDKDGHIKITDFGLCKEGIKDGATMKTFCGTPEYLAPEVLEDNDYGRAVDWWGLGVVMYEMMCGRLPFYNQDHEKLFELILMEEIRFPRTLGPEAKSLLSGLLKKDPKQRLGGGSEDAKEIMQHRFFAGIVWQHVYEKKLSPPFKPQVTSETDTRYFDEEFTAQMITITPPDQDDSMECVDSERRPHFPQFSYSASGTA

[2] = variants of: B1; conditions: with pias2_human PIAS2, O75928
pias2_human PIAS2, O75928, sequence (O75928 whole entry): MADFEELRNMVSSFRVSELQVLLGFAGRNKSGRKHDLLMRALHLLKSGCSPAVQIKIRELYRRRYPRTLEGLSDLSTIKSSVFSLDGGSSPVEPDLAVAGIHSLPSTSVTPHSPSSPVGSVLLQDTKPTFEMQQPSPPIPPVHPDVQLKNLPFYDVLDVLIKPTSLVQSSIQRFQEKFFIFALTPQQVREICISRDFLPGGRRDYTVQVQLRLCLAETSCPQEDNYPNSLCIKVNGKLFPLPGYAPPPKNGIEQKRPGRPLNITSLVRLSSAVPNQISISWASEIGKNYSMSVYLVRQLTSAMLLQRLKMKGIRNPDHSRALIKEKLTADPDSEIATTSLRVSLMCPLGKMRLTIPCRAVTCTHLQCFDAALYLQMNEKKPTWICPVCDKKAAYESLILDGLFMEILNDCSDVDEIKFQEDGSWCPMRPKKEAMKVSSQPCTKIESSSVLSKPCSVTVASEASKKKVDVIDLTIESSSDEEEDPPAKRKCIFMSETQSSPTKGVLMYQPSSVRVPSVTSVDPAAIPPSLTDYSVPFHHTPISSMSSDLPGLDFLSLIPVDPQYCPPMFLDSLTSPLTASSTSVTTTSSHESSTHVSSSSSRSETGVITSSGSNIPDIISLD

[3] = variants of: B1; conditions: with e2f1_human E2F1, Q01094
e2f1_human E2F1, Q01094, sequence (Q01094 whole entry): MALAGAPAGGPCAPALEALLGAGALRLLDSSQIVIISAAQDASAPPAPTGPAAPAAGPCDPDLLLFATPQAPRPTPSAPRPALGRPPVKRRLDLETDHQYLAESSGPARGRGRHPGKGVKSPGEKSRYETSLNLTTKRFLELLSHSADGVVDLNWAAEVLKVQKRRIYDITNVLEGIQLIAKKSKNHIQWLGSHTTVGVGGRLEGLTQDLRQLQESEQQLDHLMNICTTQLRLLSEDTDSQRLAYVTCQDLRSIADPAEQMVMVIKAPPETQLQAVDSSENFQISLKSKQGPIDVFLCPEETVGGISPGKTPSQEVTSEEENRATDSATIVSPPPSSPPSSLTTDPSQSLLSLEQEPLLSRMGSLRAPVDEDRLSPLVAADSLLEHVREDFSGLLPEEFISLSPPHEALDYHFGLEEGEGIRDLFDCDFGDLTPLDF

[4] = variants of: B1; conditions: with ve2_hpv16 E2, P03120
ve2_hpv16 E2, P03120, sequence (P03120 whole entry): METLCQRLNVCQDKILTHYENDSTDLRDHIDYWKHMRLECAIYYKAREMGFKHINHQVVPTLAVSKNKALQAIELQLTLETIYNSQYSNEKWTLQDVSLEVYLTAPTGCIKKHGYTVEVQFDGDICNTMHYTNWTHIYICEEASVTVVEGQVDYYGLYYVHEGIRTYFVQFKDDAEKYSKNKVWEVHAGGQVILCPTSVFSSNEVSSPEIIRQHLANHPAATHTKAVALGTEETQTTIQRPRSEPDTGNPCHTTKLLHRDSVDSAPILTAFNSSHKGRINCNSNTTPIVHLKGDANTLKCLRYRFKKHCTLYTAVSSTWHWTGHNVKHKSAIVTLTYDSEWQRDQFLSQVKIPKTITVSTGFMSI

Variant | effect of a mutation on the interaction [1] | effect of a mutation on the interaction [2] | effect of a mutation on the interaction [3] | effect of a mutation on the interaction [4]
S1159A | disrupting interaction | decreasing interaction | disrupting interaction | decreasing interaction
S1159D |  |  | decreasing interaction | 

Reference: IntAct's records for PubMed 17006541
